Results taken from PMC2148051, “Crystal structures of Leptospira interrogans FAD-containing ferredoxin-NADP^+ reductase and its complex with NADP^+” (BMC Structural Biology, 2007).

Experiments:
[1] = tested on: NC(=O)C1=CN([C@@H]2O[C@H](COP(=O)(O)OP(=O)(O)OC[C@H]3O[C@@H](n4cnc5c(N)ncnc54)[C@H](OP(=O)(O)O)[C@@H]3O)[C@@H](O)[C@H]2O)C=CC1; assay: purified protein; details: 1 mM potassium ferricyanide, NADPH regenerated with glucose-6-phosphate dehydrogenase, 50 mM Tris-HCl, pH 8, 30°C
[2] = target: T1, LepFNR (Leptospira interrogans, UniProt Q8EY89); assay: difference absorption spectroscopy titration; assay type: binding
T1 construct: gene LA_4327; expressed in E. coli (pET32JO-LepFNR) as thioredoxin fusion, thioredoxin removed with thrombin; FAD holoenzyme; C-terminal residue Tyr314
Text: difference absorption spectroscopy titration on LepFNR

[3] = target: T2, P. sativum FNR (Lathyrus oleraceus, UniProt P10933); assay: difference absorption spectroscopy titration; assay type: binding; details: read-out: Kd (μM, NADP^+)
T2 construct: gene PETH; plastidic enzyme
T2 sequence (P10933 53-360): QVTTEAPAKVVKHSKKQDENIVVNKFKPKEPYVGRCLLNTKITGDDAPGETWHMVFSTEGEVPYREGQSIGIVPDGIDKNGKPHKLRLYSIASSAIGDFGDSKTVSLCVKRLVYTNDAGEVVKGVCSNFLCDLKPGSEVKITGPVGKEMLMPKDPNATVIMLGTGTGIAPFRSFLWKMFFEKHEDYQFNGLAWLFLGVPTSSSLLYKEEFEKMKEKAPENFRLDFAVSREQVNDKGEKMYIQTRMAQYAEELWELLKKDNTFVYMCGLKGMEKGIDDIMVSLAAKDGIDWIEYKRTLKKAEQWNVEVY
Text: difference absorption spectroscopy titration on P. sativum FNR

[4] = target: T1, LepFNR; assay: X-ray crystal structure, […] Å; assay type: binding; details: noncovalently bound prosthetic group, extended conformation
[5] = substrate: NC(=O)C1=CN([C@@H]2O[C@H](COP(=O)(O)OP(=O)(O)OC[C@H]3O[C@@H](n4cnc5c(N)ncnc54)[C@H](OP(=O)(O)O)[C@@H]3O)[C@@H](O)[C@H]2O)C=CC1; assay: purified protein; assay type: biochemical, Lathyrus oleraceus; details: 1 mM potassium ferricyanide, NADPH regenerated with glucose-6-phosphate dehydrogenase, 50 mM Tris-HCl, pH 8, 30°C

T1 sequence (Q8EY89 entry or part of it): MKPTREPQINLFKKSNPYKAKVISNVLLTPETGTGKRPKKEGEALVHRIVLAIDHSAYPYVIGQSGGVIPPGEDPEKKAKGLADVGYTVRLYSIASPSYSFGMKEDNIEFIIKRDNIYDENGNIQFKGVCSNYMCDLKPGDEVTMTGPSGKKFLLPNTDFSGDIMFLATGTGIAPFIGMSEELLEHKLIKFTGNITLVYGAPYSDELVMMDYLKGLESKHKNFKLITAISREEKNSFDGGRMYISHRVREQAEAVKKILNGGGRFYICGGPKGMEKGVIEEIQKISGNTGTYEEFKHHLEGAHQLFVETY

Molecule: LepFNR (Leptospira interrogans serovar Lai str. 56601)
- Km [1]: 19.5 ± 1.7 µM
- kcat [1]: 258 ± 13 s⁻¹
- kcat/Km [1]: 1.32e+07 M⁻¹ s⁻¹

Molecule: NC(=O)c1ccc[n+]([C@@H]2O[C@H](COP(=O)(O)OP(=O)(O)OC[C@H]3O[C@@H](n4cnc5c(N)ncnc54)[C@H](OP(=O)(O)O)[C@@H]3O)[C@@H](O)[C@H]2O)c1 [NADP^+]
- Kd [2]: 43 ± 3 µM
- Kd [3]: 32 ± 2 µM

Molecule: Cc1cc2nc3c(=O)[nH]c(=O)nc-3n(C[C@H](O)[C@H](O)[C@H](O)COP(=O)(O)OP(=O)(O)OC[C@H]3O[C@@H](n4cnc5c(N)ncnc54)[C@H](O)[C@@H]3O)c2cc1C [FAD]
- X-ray crystal structure, 2.43 Å [4]: LepFNR accommodates the FAD molecule in an extended conformation between the two enzyme domains

B1: P. sativum FNR (Lathyrus oleraceus) (protein)
chain: T2 sequence (P10933 53-360)
notes: plastidic enzyme
- Km [5]: 19.0 ± 1.6 µM
- kcat [5]: 324 ± 16 s⁻¹
- kcat/Km [5]: 1.71e+07 M⁻¹ s⁻¹
